T1: Alder (Aln g 1, MyBiosource, Cat #MBS1041484) (Alder, UniProt P38948 2-160, limits assumed)
T1 construct: Bought reagent
T1 sequence (looked up): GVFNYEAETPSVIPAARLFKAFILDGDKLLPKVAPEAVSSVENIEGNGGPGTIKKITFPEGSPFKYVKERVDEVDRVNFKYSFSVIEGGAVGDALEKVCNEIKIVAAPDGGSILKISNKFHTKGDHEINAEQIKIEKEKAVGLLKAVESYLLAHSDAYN

T2: Apple (Mal d 1, MyBiosource, Cat #MBS1224919) (Apple, UniProt P43211 2-159, limits assumed)
T2 construct: Bought reagent
T2 sequence (looked up): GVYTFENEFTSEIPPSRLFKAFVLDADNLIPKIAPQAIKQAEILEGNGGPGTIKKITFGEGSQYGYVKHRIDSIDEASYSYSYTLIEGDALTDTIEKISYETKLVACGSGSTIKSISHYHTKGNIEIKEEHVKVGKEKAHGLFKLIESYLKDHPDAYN

T3: Celery (Api g 1, MyBiosource, Cat #MBS1171376) (Celery, UniProt P49372 1-154, limits assumed)
T3 construct: Bought reagent
T3 sequence (looked up): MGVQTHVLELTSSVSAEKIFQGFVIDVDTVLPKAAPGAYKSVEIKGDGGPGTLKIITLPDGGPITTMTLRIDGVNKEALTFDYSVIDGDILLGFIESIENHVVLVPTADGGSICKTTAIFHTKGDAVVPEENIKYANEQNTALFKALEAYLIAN

T4: natural Bet v 1 (Indoor, Cat #NA-BV1-1) (Betula verrucosa (European white birch, …, UniProt P15494 2-160))
T4 construct: Bought natural protein purified from birch pollen; also called nBet v 1
T4 sequence: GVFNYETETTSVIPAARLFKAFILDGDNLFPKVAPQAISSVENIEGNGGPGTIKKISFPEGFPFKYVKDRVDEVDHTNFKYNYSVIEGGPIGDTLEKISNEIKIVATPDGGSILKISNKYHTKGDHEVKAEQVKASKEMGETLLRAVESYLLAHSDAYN

T5: European Hornbeam (Car b 1 isoform 1A & 1B, MyBiosource, Cat #MBS1200018) (European Hornbeam, UniProt P38949 2-160)
T5 construct: Bought reagent
T5 sequence (looked up): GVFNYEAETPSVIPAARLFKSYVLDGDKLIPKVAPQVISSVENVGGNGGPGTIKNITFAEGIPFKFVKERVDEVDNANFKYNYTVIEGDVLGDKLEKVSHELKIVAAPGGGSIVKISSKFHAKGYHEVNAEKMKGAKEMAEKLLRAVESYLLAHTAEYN


Experiments:
[1] = molecular target: T1, Alder (Aln g 1, MyBiosource, Cat …); assay: SPR Biacore, 25C;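 further: binding of related allergens to purified monoclonal anti-Bet v 1 antibodies by surface plasmon resonance in HEPES-buffered saline pH 7.4, kinetics fitted to a 1:1 model with mass transport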
[2] = molecular target: T2, Apple (Mal d 1, MyBiosource, Cat …); assay: SPR Biacore, 25C;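 further: binding of related allergens to purified monoclonal anti-Bet v 1 antibodies by surface plasmon resonance in HEPES-buffered saline pH 7.4, kinetics fitted to a 1:1 model with mass transport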
[3] = molecular target: T3, Celery (Api g 1, MyBiosource, Cat …); assay: SPR Biacore, 25C;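 further: binding of related allergens to purified monoclonal anti-Bet v 1 antibodies by surface plasmon resonance in HEPES-buffered saline pH 7.4, kinetics fitted to a 1:1 model with mass transport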
[4] = molecular target: T4, natural Bet v 1 (Indoor, Cat #NA-BV1-1); assay: SPR Biacore, mAb captured on anti-hFc, 25C;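 further: rate constants from sensorgrams fitted to a 1:1 model with mass transport limitation, KD and t½ derived from kinetic constants, run in HBS-ET buffer at pH 7.4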
Experimental: (§1) Equilibrium dissociation constants (KD) for natural Bet v 1 binding to purified anti-Bet v 1 monoclonal antibodies were determined using a real-time surface plasmon resonance biosensor (SPR-Biacore) on a Biacore 4000 instrument. All binding studies were performed in 10 mM HEPES, 150 mM NaCl, 3 mM EDTA, and 0.05% v/v surfactant Tween-20, pH 7.4 (HBS-ET) running buffer at 25° C. and 37° C. […] Association (kₐ) and dissociation (kd) rate constants were determined by fitting the real-time binding sensorgrams to a 1:1 binding model with mass transport limitation using Scrubber 2.0c curve-fitting software. Binding dissociation equilibrium constants (KD) and dissociative half-lives (t½) were calculated from the kinetic rate constants as:

[5] = molecular target: T4, natural Bet v 1 (Indoor, Cat #NA-BV1-1); assay: SPR Biacore, mAb captured on anti-hFc, 37C;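 further: purified anti-Bet v 1 monoclonal antibodies, HBS-ET running buffer pH 7.4, rate constants from 1:1 model fit with mass transport limitation, KD and t½ calculated from kinetic constants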
Experimental: as §1

[6] = molecular target: T5, European Hornbeam (Car b 1 isoform 1A & …); assay: SPR Biacore, 25C;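 further: binding of related allergens to purified monoclonal anti-Bet v 1 antibodies by surface plasmon resonance in HEPES-buffered saline pH 7.4, kinetics fitted to a 1:1 model with mass transport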

Binder | binding result [1] | binding result [2] | binding result [3] | 100 nM natural Bet v 1 Bound (RU) [4] [RU] | Kd [4] [nM] | koff [4] [s⁻¹] | kon [4] [M⁻¹ s⁻¹] | t½ [4] [min] | 100 nM natural Bet v 1 Bound (RU) [5] [RU] | Kd [5] [nM] | koff [5] [s⁻¹] | kon [5] [M⁻¹ s⁻¹] | t½ [5] [min] | binding result [6]
H4H16979P (antibody, human IgG4, V domains shown) VH: QVQLVQSGAEVKKPGASVKVSCKASGYTFIAYYLHWVRQAPGQGLEWMGLLNPYTGGSYYTQKFQGRVTMTRDTSIDTAYMELNSLRSDDTAIYYCARDKRSYYIPYAFEIWGQGTMVTVSS VL: not shown | no binding (tested: 100 nM) | no binding (tested: 100 nM) | no binding (tested: 100 nM) | 41 | 1.21 | 0.000278 | 230000 | 42 | 52 | 1.8 | 0.000616 | 342000 | 19 | no binding (tested: 100 nM)
H4H17038P2 (antibody, human IgG4 S228P, kappa, V domains shown, human IgG4; also called REGN5714; MAB3) VH: EVQLVESGGDLVQPGGSLRLSCAASGFTFSSYEMNWVRQAPGKGLEWVSFISDSSSNIYYADSVKGRFTISRDNAKKSLYLQMTSLRAEDTAVYYCAREAIGSTSFDNWGQGTLVTVSS VL: EIVMTQSPATLSVSPGERATLSCRASQSVSSSLAWYQQKPGQAPRRLIYSASTRATGIPARFSGSGSGTEFTLTISSLQSEDFAIYYCHQYNNWPLTFGGGTKVEIKR | no binding (tested: 100 nM) | no binding (tested: 100 nM) | no binding (tested: 100 nM) | – | – | – | – | – | – | – | – | – | – | –
H4H16992P (antibody, human IgG4 S228P, kappa, V domains shown, human IgG4; also called REGN5713; MAB1) VH: QVQLQESGPGLVKPSETLSLTCSVSGGSITNYFWTWIRQSPGKGLEWIGYIYYSGGTNYNPSLKSRVTISIDTSKNQFSLNMNSVTAADTAVYYCAGSYYYGVDVWGQGTTVTVSS VL: EIVLTQSPATLSLSPGERATLSCRASQSIKSFLAWYRQKPGQAPRLLIYDASNRPTGIPARFSGSGSGTDFTLTINSLESEDFAVYFCQQRNNWPFTFGPGTKVDIKR | no binding (tested: 100 nM) | no binding (tested: 100 nM) | no binding (tested: 100 nM) | – | – | – | – | – | – | – | – | – | – | –
H4H17027P (antibody, human IgG4, V domains shown) VH: EVQLVESGGGLVQPGGSLRLSCAASGFTFRNYAMHWVRQAPGEGLEWVAAIYRNSDSIDYADSVKGRFTISRDNAKNSLYLQMNSLKTEDTALYYCAKDEGFLEYFDSWGQGTLVTVSS VL: EIVLTQSPGTLSLSPGERASLSCRASQSVSSSFLAWYQQKPGQAPRLLIYGVSSRFIGIPDRFSGGGSGTDFTLTITRLEPEDFAVYYCQQYGRSPWTFGQGTKVEIK | – | no binding (tested: 100 nM) | no binding (tested: 100 nM) | 48 | 4.32 | 0.00027 | 62400 | 43 | 67 | 9.48 | 0.00093 | 98100 | 12 | –
H4H16971P (antibody, human IgG4, V domains shown) VH: QVQLVESGGGVVQPGRSLRLSCAASGFTFSSYGLHWVRQAPGKGLEWVAVISDDGSYKFYADSMKGRFTISRDNSKNTLYLQMNSLRAEDTAVYYCAKDRGRSGWYYFDYWGQGTLVTVSS VL: not shown | – | – | no binding (tested: 100 nM) | 57 | 3.26 | 0.000781 | 240000 | 15 | 66 | 6.93 | 0.00244 | 352000 | 4.7 | no binding (tested: 100 nM)

Other lines, results leading:

binding result [1] | binding result [2] | binding result [3] | 100 nM natural Bet v 1 Bound (RU) [4] [RU] | Kd [4] [nM] | koff [4] [s⁻¹] | kon [4] [M⁻¹ s⁻¹] | t½ [4] [min] | 100 nM natural Bet v 1 Bound (RU) [5] [RU] | Kd [5] [nM] | koff [5] [s⁻¹] | kon [5] [M⁻¹ s⁻¹] | t½ [5] [min] | binding result [6] | Binder
no binding (tested: 100 nM) | no binding (tested: 100 nM) | no binding (tested: 100 nM) | 74 | 0.982 | 0.000201 | 205000 | 58 | 93 | 2.08 | 0.000601 | 289000 | 19 | – | H4H16946P (antibody, human IgG4, V domains shown) VH: EVQLVESGGGLVQPGGSLRLSCVASGFTFSNYDMNWVRQAPGEGLEWISYISYSDHNIYYIDSVKGRFTISRDNAKNSLYLQMNSLRAEDTAIYYCAREALASSSFDYWGQGTLVTVSS VL: EIVMTQSPATLSVSPGERVTLSCRASQSVSGNLAWYQQKPGQAPRLLIYSASTGATGVPARFSGSGSGTEFTLTISSLQSEDFALYYCQQYNKWPRTIGQGTKVEIK
– | no binding (tested: 100 nM) | no binding (tested: 100 nM) | 61 | 2.77 | 0.00114 | 410000 | 10 | 74 | 9.16 | 0.00477 | 520000 | 2.4 | no binding (tested: 100 nM) | H4H16987P (antibody, human IgG4 S228P, kappa, V domains shown, human IgG4; also called MAB4) VH: EVQLVESGGGLVQPGGSLRLSCAASGFTVSSNSMSWVRQAPGEGLEWVSVIFSGGITYYSDSVKGRFTISRHNSKNTLYLQMNSLRTEDTAVYYCARHSNWNFDAFDIWGQGTMVTVSS VL: DIQMTQSPSSLSASVGDRVTITCRASQSFDTYLNWYQQKPGKAPNLLIYATSSLQSGVPSRFSGSGSGTDFTLTISSLQPEDFGTYYCQQSYSIPYTFGQGTKLEIKR
– | no binding (tested: 100 nM) | no binding (tested: 100 nM) | 54 | 13.5 | 0.00168 | 124000 | 6.8 | 63 | 27.9 | 0.00544 | 485000 | 2.1 | – | H4H17031P (antibody, human IgG4, V domains shown) VH: QVQLQQWGAGLLKPSETLSLTCVVYGESFGNYHWNWIRQSPGKRLEWIGEINQNGHTNYNPSLKSRVTISVDTSKIQFSLRLNSVTAADTAVYFCARGHNYVNSYFGLDVWGQGTTVTVSS VL: EIVMTQSPATLSVSPGERATLSCRTSQSVSISLAWYQRKPGQAPRLLIFGSSTRATGVPARFSGSGSGTEFTLTISSLQSEDFAVYYCQQYNNWPYTFGQGTKLEIK
no binding (tested: 100 nM) | no binding (tested: 100 nM) | – | 61 | 1.19 | 0.000469 | 394000 | 25 | 74 | 1.9 | 0.00119 | 627000 | 10 | no binding (tested: 100 nM) | H4H17033P (antibody, human IgG4, V domains shown) VH: QVQLVQSGAEVKKPGASVKVSCKASGYTFAAHYMHWVRQAPGQGLEWMGWINTYTGGTNYGQKFQGRVTMTRDTSITTAYMELSRLRSDDTAVYYCARDRRNWNFVFEYWGQGTLVTVSS VL: DIQMTQSPSSLSASVGDRVTISCRASQNIKNYLNWYQQKPGKAPKLLIYEASNLQSGAPSRFSGSGSGTDFTLTISSLEPEDFATYYCQQSFSIPWTFGQGTKVEIK
– | no binding (tested: 100 nM) | no binding (tested: 100 nM) | 63 | 3.79 | 0.00107 | 281000 | 11 | 71 | 7.77 | 0.0029 | 373000 | 3.9 | – | H4H17028P (antibody, human IgG4, V domains shown) VH: QVQLVESGGGVVQPGRSLRLSCAASGFTFSRYAIHWVRQAPGKGLEWVAVISYDGDDKYYGDSVKGRFTISRDNSKTMVYLHMNSLRTEDTAVYYCAKDGYSLYGKDYFDYWGQGTLVTVSS VL: EIVLTQSPGTLPLSPGERATLSCRASQSITNSYLAWYQQKPDQAPRLLIYGASSRATGIPDRFSGSESGTDFTLTISRLEPEDFAVYYCQQYVRSPWTFGQGTKVEIK

Reference: US20240083986A1 (published 2024)
